Experimental data: US12091446
pKd: −log10 of the molar value.

Experiments:
[1] = biological target: SARS-COV-2 RBD Lambda variant (SARS-CoV-2)
[2] = biological target: SARS-COV-2 RBD Mu variant (SARS-CoV-2)
[3] = biological target: SARS-COV-2 RBD Beta variant (SARS-CoV-2)
[4] = biological target: SARS-COV-2 RBD Gamma variant (SARS-CoV-2)

Sequence of huACE2-Fc (Q9BYF1 18-740): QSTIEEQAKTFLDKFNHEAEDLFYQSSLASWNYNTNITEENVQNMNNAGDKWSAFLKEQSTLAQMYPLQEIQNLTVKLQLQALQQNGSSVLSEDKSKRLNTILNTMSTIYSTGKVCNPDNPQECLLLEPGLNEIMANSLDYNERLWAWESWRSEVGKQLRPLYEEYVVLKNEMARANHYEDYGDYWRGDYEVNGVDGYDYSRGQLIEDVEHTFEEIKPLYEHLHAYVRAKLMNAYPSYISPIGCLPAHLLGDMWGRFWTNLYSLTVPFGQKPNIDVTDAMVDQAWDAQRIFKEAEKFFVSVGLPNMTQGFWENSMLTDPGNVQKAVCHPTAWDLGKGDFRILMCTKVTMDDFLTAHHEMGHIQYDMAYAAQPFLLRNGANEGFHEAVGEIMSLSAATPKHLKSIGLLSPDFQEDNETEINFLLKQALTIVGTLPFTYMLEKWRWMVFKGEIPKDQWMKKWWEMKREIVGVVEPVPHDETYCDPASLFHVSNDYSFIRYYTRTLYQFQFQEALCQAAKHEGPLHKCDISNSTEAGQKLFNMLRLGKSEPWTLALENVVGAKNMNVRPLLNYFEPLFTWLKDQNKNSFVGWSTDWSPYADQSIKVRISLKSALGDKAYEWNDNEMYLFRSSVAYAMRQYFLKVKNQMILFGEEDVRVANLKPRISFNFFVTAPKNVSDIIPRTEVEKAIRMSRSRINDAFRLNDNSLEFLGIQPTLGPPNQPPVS

Substance “huACE2-Fc (from UniProt Q9BYF1) (Fc fusion)” has a pKd [1] of 8.27, a pKd [2] of 7.89 and a pKd [3] of 7.35. The pKd [4] was 8.44.
